Experimental data taken from patent US20030096760A1 (GlaxoSmithKline, published 2003).
[ ]: non-standard residue; d: D form.

Target: T1, DET1-DET2-spacer-ek-src SH2 (human src SH2 domain fusion protein) (human)
T1 construct: In the assay it was captured on Protein-G Sepharose through MAB178.1; also called cloned human Src SH2 domain
T1 chain: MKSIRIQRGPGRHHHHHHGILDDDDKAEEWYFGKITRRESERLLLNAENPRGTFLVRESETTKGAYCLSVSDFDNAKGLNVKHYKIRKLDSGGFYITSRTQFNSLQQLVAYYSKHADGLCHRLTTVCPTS
Experiment: ELISA-based filter plate competition assay; SH2 fusion captured by MAB178.1, displacement of 0.1 uM biotinylated pY peptide (SEQ ID NO: 13)

B1: (S)-alpha-(acetylamino)-1,3-dihydro-3-hydroxy-1-oxo-5-isobenzofuranpropanamido-glutamate-glutamate-isoleucine-glutamate-amine (peptide)
peptide: Ac-[(S)‑2‑amino‑3‑(1,3-dihydro-3-hydroxy-1-oxo-isobenzofuran-5-yl)propanoic acid]EEIE-NH2
notes: Synthetic modified pentapeptide; also called Compound 1
IC50: 250 nM
